Measurements taken from the supplement of paper PMC9112550, “Optimization of the antimicrobial peptide Bac7 by deep mutational scanning” (BMC Biology, 2022).

What follows are sequences tested on Escherichia coli TOP10 (assay: shrunken log2 fold change of peptide-encoding DNA abundance (4.5 h post-induction vs induction); higher = less antimicrobial activity (less host growth inhibition)). Details: time post-induction: 4.5 h; library: site-saturation at positions 5, 18, 19, 20.
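Further: peptides expressed intracellularly from a pBAD plasmid library in pooled LB shake-flask culture, induced with 0.3% L-arabinose, DNA abundance read by NGS, three biological replicates, DESeq2 with apeglm shrinkage.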

Row | Sequence | shrunken log2 fold change
1 | RRIRCRPPRLPRPRPRPRTEPRP | 0.0022
2 | RRIRCRPPRLPRPRPRPRVEPRP | 0.0473
3 | RRIRCRPPRLPRPRPRPSADPRP | 0.0289
4 | RRIRCRPPRLPRPRPRPSAGPRP | 0.194
5 | RRIRCRPPRLPRPRPRPSASPRP | 0.165
6 | RRIRCRPPRLPRPRPRPSCGPRP | -0.103
7 | RRIRCRPPRLPRPRPRPSCIPRP | -0.253
8 | RRIRCRPPRLPRPRPRPSCPPRP | -0.407
9 | RRIRCRPPRLPRPRPRPSCSPRP | -0.482
10 | RRIRCRPPRLPRPRPRPSDAPRP | -0.0145
11 | RRIRCRPPRLPRPRPRPSDHPRP | -0.714
12 | RRIRCRPPRLPRPRPRPSEDPRP | -0.112
13 | RRIRCRPPRLPRPRPRPSEMPRP | -0.286
14 | RRIRCRPPRLPRPRPRPSENPRP | -0.154
15 | RRIRCRPPRLPRPRPRPSFMPRP | -0.688
16 | RRIRCRPPRLPRPRPRPSGEPRP | 0.299
17 | RRIRCRPPRLPRPRPRPSGKPRP | -0.327
18 | RRIRCRPPRLPRPRPRPSGPPRP | 0.124
19 | RRIRCRPPRLPRPRPRPSGYPRP | -0.724
20 | RRIRCRPPRLPRPRPRPSISPRP | -0.136
21 | RRIRCRPPRLPRPRPRPSLAPRP | 0.133
22 | RRIRCRPPRLPRPRPRPSMDPRP | -0.182
23 | RRIRCRPPRLPRPRPRPSNHPRP | -0.718
24 | RRIRCRPPRLPRPRPRPSQDPRP | 0.0757
25 | RRIRCRPPRLPRPRPRPSRFPRP | -0.0991

Row | Sequence | shrunken log2 fold change
26 | RRIRCRPPRLPRPRPRPSRWPRP | 0.599
27 | RRIRCRPPRLPRPRPRPSSCPRP | -0.211
28 | RRIRCRPPRLPRPRPRPSSFPRP | -0.0694
29 | RRIRCRPPRLPRPRPRPSSSPRP | -0.366
30 | RRIRCRPPRLPRPRPRPSTEPRP | -0.174
31 | RRIRCRPPRLPRPRPRPSTMPRP | -0.509
32 | RRIRCRPPRLPRPRPRPSVFPRP | -0.614
33 | RRIRCRPPRLPRPRPRPSYPPRP | -0.703
34 | RRIRCRPPRLPRPRPRPTEDPRP | -0.0639
35 | RRIRCRPPRLPRPRPRPTGFPRP | -0.135
36 | RRIRCRPPRLPRPRPRPTGMPRP | -0.013
37 | RRIRCRPPRLPRPRPRPTKIPRP | 0.0473
38 | RRIRCRPPRLPRPRPRPTMHPRP | -0.112
39 | RRIRCRPPRLPRPRPRPTMMPRP | -0.0339
40 | RRIRCRPPRLPRPRPRPTPDPRP | 0.857
41 | RRIRCRPPRLPRPRPRPTPKPRP | 0.877
42 | RRIRCRPPRLPRPRPRPTQRPRP | 0.514
43 | RRIRCRPPRLPRPRPRPTSLPRP | -0.167
44 | RRIRCRPPRLPRPRPRPTVPPRP | 0.247
45 | RRIRCRPPRLPRPRPRPTVQPRP | 0.0608
46 | RRIRCRPPRLPRPRPRPTWIPRP | 0.24
47 | RRIRCRPPRLPRPRPRPTWWPRP | 0.294
48 | RRIRCRPPRLPRPRPRPTYNPRP | -0.722
49 | RRIRCRPPRLPRPRPRPVCMPRP | -0.119
50 | RRIRCRPPRLPRPRPRPVDSPRP | 0.176

Row | Sequence | shrunken log2 fold change
51 | RRIRCRPPRLPRPRPRPVFAPRP | -0.224
52 | RRIRCRPPRLPRPRPRPVFQPRP | -0.0498
53 | RRIRCRPPRLPRPRPRPVFTPRP | -0.211
54 | RRIRCRPPRLPRPRPRPVFVPRP | -0.136
55 | RRIRCRPPRLPRPRPRPVGGPRP | 0.273
56 | RRIRCRPPRLPRPRPRPVHGPRP | 0.267
57 | RRIRCRPPRLPRPRPRPVHWPRP | -0.21
58 | RRIRCRPPRLPRPRPRPVKEPRP | -0.0734
59 | RRIRCRPPRLPRPRPRPVMDPRP | -0.0102
60 | RRIRCRPPRLPRPRPRPVPFPRP | -0.132
61 | RRIRCRPPRLPRPRPRPVPSPRP | -0.119
62 | RRIRCRPPRLPRPRPRPVQRPRP | 0.123
63 | RRIRCRPPRLPRPRPRPVRLPRP | 0.499
64 | RRIRCRPPRLPRPRPRPVRWPRP | 0.952
65 | RRIRCRPPRLPRPRPRPVSAPRP | 0.15
66 | RRIRCRPPRLPRPRPRPVSPPRP | 0.198
67 | RRIRCRPPRLPRPRPRPVSYPRP | 0.0707
68 | RRIRCRPPRLPRPRPRPVTMPRP | -0.49
69 | RRIRCRPPRLPRPRPRPVVVPRP | -0.203
70 | RRIRCRPPRLPRPRPRPWCEPRP | -0.349
71 | RRIRCRPPRLPRPRPRPWCMPRP | -0.585
72 | RRIRCRPPRLPRPRPRPWEEPRP | 0.0492
73 | RRIRCRPPRLPRPRPRPWFKPRP | -0.582
74 | RRIRCRPPRLPRPRPRPWFLPRP | -0.479
75 | RRIRCRPPRLPRPRPRPWFQPRP | -0.2

Row | Sequence | shrunken log2 fold change
76 | RRIRCRPPRLPRPRPRPWGIPRP | -0.59
77 | RRIRCRPPRLPRPRPRPWGRPRP | -0.118
78 | RRIRCRPPRLPRPRPRPWHHPRP | -1.14
79 | RRIRCRPPRLPRPRPRPWHKPRP | -0.256
80 | RRIRCRPPRLPRPRPRPWHYPRP | -0.51
81 | RRIRCRPPRLPRPRPRPWIWPRP | -0.128
82 | RRIRCRPPRLPRPRPRPWKKPRP | -0.0238
83 | RRIRCRPPRLPRPRPRPWKTPRP | -0.152
84 | RRIRCRPPRLPRPRPRPWKYPRP | -0.0802
85 | RRIRCRPPRLPRPRPRPWLGPRP | 0.188
86 | RRIRCRPPRLPRPRPRPWLLPRP | -0.381
87 | RRIRCRPPRLPRPRPRPWMGPRP | 0.439
88 | RRIRCRPPRLPRPRPRPWPSPRP | -0.0603
89 | RRIRCRPPRLPRPRPRPWRDPRP | -0.0798
90 | RRIRCRPPRLPRPRPRPWRWPRP | 0.568
91 | RRIRCRPPRLPRPRPRPWTTPRP | -0.138
92 | RRIRCRPPRLPRPRPRPWVRPRP | -0.0386
93 | RRIRCRPPRLPRPRPRPWYTPRP | -0.739
94 | RRIRCRPPRLPRPRPRPYFLPRP | -0.823
95 | RRIRCRPPRLPRPRPRPYFTPRP | -0.774
96 | RRIRCRPPRLPRPRPRPYGYPRP | -0.0837
97 | RRIRCRPPRLPRPRPRPYHSPRP | -0.73
98 | RRIRCRPPRLPRPRPRPYICPRP | -0.419
99 | RRIRCRPPRLPRPRPRPYLCPRP | -0.455
100 | RRIRCRPPRLPRPRPRPYLEPRP | -0.208

Row | Sequence | shrunken log2 fold change
101 | RRIRCRPPRLPRPRPRPYLIPRP | -0.233
102 | RRIRCRPPRLPRPRPRPYLLPRP | -0.559
103 | RRIRCRPPRLPRPRPRPYMCPRP | -0.233
104 | RRIRCRPPRLPRPRPRPYNAPRP | -1.23
105 | RRIRCRPPRLPRPRPRPYNEPRP | -0.51
106 | RRIRCRPPRLPRPRPRPYQVPRP | -0.829
107 | RRIRCRPPRLPRPRPRPYQWPRP | -0.714
108 | RRIRCRPPRLPRPRPRPYRKPRP | -0.49
109 | RRIRCRPPRLPRPRPRPYRLPRP | -0.0743
110 | RRIRCRPPRLPRPRPRPYSMPRP | -0.905
111 | RRIRCRPPRLPRPRPRPYTDPRP | -0.431
112 | RRIRCRPPRLPRPRPRPYTHPRP | -1.19
113 | RRIRCRPPRLPRPRPRPYTPPRP | -1.23
114 | RRIRCRPPRLPRPRPRPYVLPRP | -0.903
115 | RRIRCRPPRLPRPRPRPYVYPRP | -0.834
116 | RRIRCRPPRLPRPRPRPYWMPRP | -1.07
117 | RRIRCRPPRLPRPRPRPYWSPRP | -1.2
118 | RRIRDRPPRLPRPRPRPAAGPRP | 0.793
119 | RRIRDRPPRLPRPRPRPACIPRP | 0.194
120 | RRIRDRPPRLPRPRPRPACSPRP | 0.386
121 | RRIRDRPPRLPRPRPRPACTPRP | 0.642
122 | RRIRDRPPRLPRPRPRPADVPRP | 0.384
123 | RRIRDRPPRLPRPRPRPAETPRP | 0.0806
124 | RRIRDRPPRLPRPRPRPAHMPRP | -0.125
125 | RRIRDRPPRLPRPRPRPAHQPRP | 0.516

Row | Sequence | shrunken log2 fold change
126 | RRIRDRPPRLPRPRPRPAIGPRP | 0.325
127 | RRIRDRPPRLPRPRPRPAINPRP | -0.117
128 | RRIRDRPPRLPRPRPRPAIPPRP | -0.538
129 | RRIRDRPPRLPRPRPRPAIQPRP | 0.389
130 | RRIRDRPPRLPRPRPRPAKKPRP | -0.00565
131 | RRIRDRPPRLPRPRPRPALIPRP | 0.145
132 | RRIRDRPPRLPRPRPRPALLPRP | 1.02
133 | RRIRDRPPRLPRPRPRPAMDPRP | 0.335
134 | RRIRDRPPRLPRPRPRPAMNPRP | 0.139
135 | RRIRDRPPRLPRPRPRPANEPRP | 0.0557
136 | RRIRDRPPRLPRPRPRPAPPPRP | 0.71
137 | RRIRDRPPRLPRPRPRPAQWPRP | 0.395
138 | RRIRDRPPRLPRPRPRPARLPRP | 0.382
139 | RRIRDRPPRLPRPRPRPATQPRP | 0.52
140 | RRIRDRPPRLPRPRPRPAWIPRP | 0.0906
141 | RRIRDRPPRLPRPRPRPAWTPRP | -0.0791
142 | RRIRDRPPRLPRPRPRPAWVPRP | 0.103
143 | RRIRDRPPRLPRPRPRPAWYPRP | -0.0946
144 | RRIRDRPPRLPRPRPRPAYDPRP | 0.0094
145 | RRIRDRPPRLPRPRPRPAYYPRP | -0.947
146 | RRIRDRPPRLPRPRPRPCACPRP | 0.112
147 | RRIRDRPPRLPRPRPRPCAFPRP | 0.822
148 | RRIRDRPPRLPRPRPRPCAGPRP | 0.0969
149 | RRIRDRPPRLPRPRPRPCCCPRP | 0.714
150 | RRIRDRPPRLPRPRPRPCCHPRP | 0.0218
